First the molecules themselves.
B1: Phytochrome B (Oryza sativa subsp. japonica (Rice)), Q10MG9 (parent)
chain: MASGSRATPTRSPSSARPAAPRHQHHHSQSSGGSTSRAGGGGGGGGGGGGGAAAAESVSKAVAQYTLDARLHAVFEQSGASGRSFDYTQSLRASPTPSSEQQIAAYLSRIQRGGHIQPFGCTLAVADDSSFRLLAYSENTADLLDLSPHHSVPSLDSSAVPPPVSLGADARLLFAPSSAVLLERAFAAREISLLNPLWIHSRVSSKPFYAILHRIDVGVVIDLEPARTEDPALSIAGAVQSQKLAVRAISRLQALPGGDVKLLCDTVVEYVRELTGYDRVMVYRFHEDEHGEVVAESRRNNLEPYIGLHYPATDIPQASRFLFRQNRVRMIADCHAAPVRVIQDPALTQPLCLVGSTLRSPHGCHAQYMANMGSIASLVMAVIISSGGDDDHNISRGSIPSAMKLWGLVVCHHTSPRCIPFPLRYACEFLMQAFGLQLNMELQLAHQLSEKHILRTQTLLCDMLLRDSPTGIVTQSPSIMDLVKCDGAALYYHGKYYPLGVTPTEVQIKDIIEWLTMCHGDSTGLSTDSLADAGYPGAAALGDAVSGMAVAYITPSDYLFWFRSHTAKEIKWGGAKHHPEDKDDGQRMHPRSSFKAFLEVVKSRSLPWENAEMDAIHSLQLILRDSFRDSAEGTSNSKAIVNGQVQLGELELRGIDELSSVAREMVRLIETATVPIFAVDTDGCINGWNAKVAELTGLSVEEAMGKSLVNDLIFKESEETVNKLLSRALRGDEDKNVEIKLKTFGPEQSKGPIFVIVNACSSRDYTKNIVGVCFVGQDVTGQKVVMDKFINIQGDYKAIVHNPNPLIPPIFASDENTCCSEWNTAMEKLTGWSRGEVVGKLLVGEVFGNCCRLKGPDALTKFMIVLHNAIGGQDCEKFPFSFFDKNGKYVQALLTANTRSRMDGEAIGAFCFLQIASPELQQAFEIQRHHEKKCYARMKELAYIYQEIKNPLNGIRFTNSLLEMTDLKDDQRQFLETSTACEKQMSKIVKDASLQSIEDGSLVLEKGEFSLGSVMNAVVSQVMIQLRERDLQLIRDIPDEIKEASAYGDQYRIQQVLCDFLLSMVRFAPAENGWVEIQVRPNIKQNSDGTDTMLFLFRFACPGEGLPPEIVQDMFSNSRWTTQEGIGLSICRKILKLMGGEVQYIRESERSFFHIVLELPQPQQAASRGTS
partner: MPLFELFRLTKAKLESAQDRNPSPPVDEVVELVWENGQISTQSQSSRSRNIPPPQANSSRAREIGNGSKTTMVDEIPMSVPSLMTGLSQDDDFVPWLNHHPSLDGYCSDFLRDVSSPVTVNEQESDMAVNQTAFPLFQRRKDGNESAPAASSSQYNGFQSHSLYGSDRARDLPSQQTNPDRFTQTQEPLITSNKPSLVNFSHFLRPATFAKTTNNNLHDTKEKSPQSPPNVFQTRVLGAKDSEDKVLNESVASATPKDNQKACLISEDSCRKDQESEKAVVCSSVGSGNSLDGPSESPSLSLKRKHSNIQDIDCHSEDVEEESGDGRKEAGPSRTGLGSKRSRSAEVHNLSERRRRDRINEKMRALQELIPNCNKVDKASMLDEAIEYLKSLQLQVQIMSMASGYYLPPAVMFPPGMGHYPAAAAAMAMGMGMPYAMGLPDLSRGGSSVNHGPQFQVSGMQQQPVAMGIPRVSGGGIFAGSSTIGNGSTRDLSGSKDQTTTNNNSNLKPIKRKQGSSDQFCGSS
B2: Phytochrome B (Arabidopsis thaliana (Mouse-ear cress)), P14713 (parent)
chain: MVSGVGGSGGGRGGGRGGEEEPSSSHTPNNRRGGEQAQSSGTKSLRPRSNTESMSKAIQQYTVDARLHAVFEQSGESGKSFDYSQSLKTTTYGSSVPEQQITAYLSRIQRGGYIQPFGCMIAVDESSFRIIGYSENAREMLGIMPQSVPTLEKPEILAMGTDVRSLFTSSSSILLERAFVAREITLLNPVWIHSKNTGKPFYAILHRIDVGVVIDLEPARTEDPALSIAGAVQSQKLAVRAISQLQALPGGDIKLLCDTVVESVRDLTGYDRVMVYKFHEDEHGEVVAESKRDDLEPYIGLHYPATDIPQASRFLFKQNRVRMIVDCNATPVLVVQDDRLTQSMCLVGSTLRAPHGCHSQYMANMGSIASLAMAVIINGNEDDGSNVASGRSSMRLWGLVVCHHTSSRCIPFPLRYACEFLMQAFGLQLNMELQLALQMSEKRVLRTQTLLCDMLLRDSPAGIVTQSPSIMDLVKCDGAAFLYHGKYYPLGVAPSEVQIKDVVEWLLANHADSTGLSTDSLGDAGYPGAAALGDAVCGMAVAYITKRDFLFWFRSHTAKEIKWGGAKHHPEDKDDGQRMHPRSSFQAFLEVVKSRSQPWETAEMDAIHSLQLILRDSFKESEAAMNSKVVDGVVQPCRDMAGEQGIDELGAVAREMVRLIETATVPIFAVDAGGCINGWNAKIAELTGLSVEEAMGKSLVSDLIYKENEATVNKLLSRALRGDEEKNVEVKLKTFSPELQGKAVFVVVNACSSKDYLNNIVGVCFVGQDVTSQKIVMDKFINIQGDYKAIVHSPNPLIPPIFAADENTCCLEWNMAMEKLTGWSRSEVIGKMIVGEVFGSCCMLKGPDALTKFMIVLHNAIGGQDTDKFPFPFFDRNGKFVQALLTANKRVSLEGKVIGAFCFLQIPSPELQQALAVQRRQDTECFTKAKELAYICQVIKNPLSGMRFANSLLEATDLNEDQKQLLETSVSCEKQISRIVGDMDLESIEDGSFVLKREEFFLGSVINAIVSQAMFLLRDRGLQLIRDIPEEIKSIEVFGDQIRIQQLLAEFLLSIIRYAPSQEWVEIHLSQLSKQMADGFAAIRTEFRMACPGEGLPPELVRDMFHSSRWTSPEGLGLSVCRKILKLMNGEVQYIRESERSYFLIILELPVPRKRPLSTASGSGDMMLMMPY
partner: B1 partner
B3: Phytochrome A (Arabidopsis thaliana (Mouse-ear cress)), P14712 (parent)
chain: MSGSRPTQSSEGSRRSRHSARIIAQTTVDAKLHADFEESGSSFDYSTSVRVTGPVVENQPPRSDKVTTTYLHHIQKGKLIQPFGCLLALDEKTFKVIAYSENASELLTMASHAVPSVGEHPVLGIGTDIRSLFTAPSASALQKALGFGDVSLLNPILVHCRTSAKPFYAIIHRVTGSIIIDFEPVKPYEVPMTAAGALQSYKLAAKAITRLQSLPSGSMERLCDTMVQEVFELTGYDRVMAYKFHEDDHGEVVSEVTKPGLEPYLGLHYPATDIPQAARFLFMKNKVRMIVDCNAKHARVLQDEKLSFDLTLCGSTLRAPHSCHLQYMANMDSIASLVMAVVVNEEDGEGDAPDATTQPQKRKRLWGLVVCHNTTPRFVPFPLRYACEFLAQVFAIHVNKEVELDNQMVEKNILRTQTLLCDMLMRDAPLGIVSQSPNIMDLVKCDGAALLYKDKIWKLGTTPSEFHLQEIASWLCEYHMDSTGLSTDSLHDAGFPRALSLGDSVCGMAAVRISSKDMIFWFRSHTAGEVRWGGAKHDPDDRDDARRMHPRSSFKAFLEVVKTRSLPWKDYEMDAIHSLQLILRNAFKDSETTDVNTKVIYSKLNDLKIDGIQELEAVTSEMVRLIETATVPILAVDSDGLVNGWNTKIAELTGLSVDEAIGKHFLTLVEDSSVEIVKRMLENALEGTEEQNVQFEIKTHLSRADAGPISLVVNACASRDLHENVVGVCFVAHDLTGQKTVMDKFTRIEGDYKAIIQNPNPLIPPIFGTDEFGWCTEWNPAMSKLTGLKREEVIDKMLLGEVFGTQKSCCRLKNQEAFVNLGIVLNNAVTSQDPEKVSFAFFTRGGKYVECLLCVSKKLDREGVVTGVFCFLQLASHELQQALHVQRLAERTAVKRLKALAYIKRQIRNPLSGIMFTRKMIEGTELGPEQRRILQTSALCQKQLSKILDDSDLESIIEGCLDLEMKEFTLNEVLTASTSQVMMKSNGKSVRITNETGEEVMSDTLYGDSIRLQQVLADFMLMAVNFTPSGGQLTVSASLRKDQLGRSVHLANLEIRLTHTGAGIPEFLLNQMFGTEEDVSEEGLSLMVSRKLVKLMNGDVQYLRQAGKSSFIITAELAAANK
partner: B1 partner

Variants of B1 are the subject of the first experiment. The settings on record: with pif3_arath PIF3, O80536.
As for A759V, the “effect of a mutation on the interaction” value is “decreasing interaction”.
With E821K, the “effect of a mutation on the interaction” value is reported as “decreasing interaction”.

The variants in the next experiment derive from B2. As to conditions: with pif3_arath PIF3, O80536.
As to E812K, the “effect of a mutation on the interaction” value is listed as “decreasing interaction”.
For A750V, the “effect of a mutation on the interaction” value is “decreasing interaction”.

The variants in another experiment derive from B3. The settings on record: with pif3_arath PIF3, O80536.
Consider G787E, for which the “effect of a mutation on the interaction” value is recorded as “decreasing interaction”.
With A715V, the “effect of a mutation on the interaction” value is “decreasing interaction”.
